Like-named read-outs stand apart in the source and are kept apart here. Where no end group is shown, it is not given here.
T1: Vac8 (full length, residues 1 to 578) (S. cerevisiae, UniProt P39968 1-578)
T1 sequence: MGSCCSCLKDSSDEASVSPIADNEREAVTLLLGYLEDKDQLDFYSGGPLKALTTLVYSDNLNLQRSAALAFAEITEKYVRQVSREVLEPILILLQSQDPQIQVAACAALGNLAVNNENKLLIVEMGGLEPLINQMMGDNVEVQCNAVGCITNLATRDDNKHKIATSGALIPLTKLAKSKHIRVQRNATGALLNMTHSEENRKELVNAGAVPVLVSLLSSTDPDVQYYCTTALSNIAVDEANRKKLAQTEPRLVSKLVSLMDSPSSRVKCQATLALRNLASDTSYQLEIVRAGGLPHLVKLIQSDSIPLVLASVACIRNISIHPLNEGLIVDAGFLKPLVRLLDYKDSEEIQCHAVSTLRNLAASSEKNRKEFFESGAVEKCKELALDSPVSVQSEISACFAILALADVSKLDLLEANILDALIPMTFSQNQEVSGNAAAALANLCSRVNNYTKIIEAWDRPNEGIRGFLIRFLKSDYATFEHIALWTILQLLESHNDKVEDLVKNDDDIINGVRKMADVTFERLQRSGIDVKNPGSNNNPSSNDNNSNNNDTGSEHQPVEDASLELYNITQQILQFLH

T2: preformed Vac8–tVac17 complex (ITC sample cell) (S. cerevisiae, UniProt P39968;P25591)
T2 sequence 1: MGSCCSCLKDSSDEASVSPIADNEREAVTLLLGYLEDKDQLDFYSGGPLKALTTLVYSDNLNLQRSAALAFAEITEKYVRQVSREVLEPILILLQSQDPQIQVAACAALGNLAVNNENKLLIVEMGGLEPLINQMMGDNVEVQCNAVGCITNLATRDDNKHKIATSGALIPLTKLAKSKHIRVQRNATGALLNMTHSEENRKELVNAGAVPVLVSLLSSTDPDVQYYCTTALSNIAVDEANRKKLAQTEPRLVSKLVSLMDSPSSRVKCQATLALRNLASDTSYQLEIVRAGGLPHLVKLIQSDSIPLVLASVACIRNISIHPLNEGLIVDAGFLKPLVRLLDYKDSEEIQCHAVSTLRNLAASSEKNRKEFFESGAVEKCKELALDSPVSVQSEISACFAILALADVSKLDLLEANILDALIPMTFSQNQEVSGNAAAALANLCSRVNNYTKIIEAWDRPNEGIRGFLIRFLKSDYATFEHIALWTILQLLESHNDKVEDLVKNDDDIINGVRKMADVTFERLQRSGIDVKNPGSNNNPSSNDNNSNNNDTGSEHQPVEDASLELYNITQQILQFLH
T2 sequence 2: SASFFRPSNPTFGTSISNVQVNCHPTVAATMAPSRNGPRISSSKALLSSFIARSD


Legend:
Test in all cases: ITC
[1] = target: T1, Vac8 (full length, residues 1 to 578)
[2] = target: T1, Vac8 (full length, residues 1 to 578); remark: listed apart in the source
[3] = target: T2, preformed Vac8–tVac17 complex (ITC …)

| Binder | Kd [1] [µM] | Kd [2] [µM] | Kd [3] [µM] |
| --- | --- | --- | --- |
| Halo-tag-conjugated tVac17 (Vac17 residues 290 to 344) (domain or fragment, also: Halo-tag conjugate) SASFFRPSNPTFGTSISNVQVNCHPTVAATMAPSRNGPRISSSKALLSSFIARSD | 2.53 | – | – |
| Nvj1^229–321 (domain or fragment) NREKDCSSSSEVESQSKCRKESTAEPDSLSRDTRTTSSLKSSTSFPISFKGSIDLKSLNQPSSLLHIQVSPTKSSNLDAQVNTEQAYSQPFRY | – | 0.71 | 10 |
| Atg13^567–695 (domain or fragment) GGNSSTSALNSRRNSLDKSSNKQGMSGLPPIFGGESTSYHHDNKIQKYNQLGVEEDDDDENDRLLNQMGNSATKFKSSISPRSIDSISSSFIKSRIPIRQPYHYSQPTTAPFQAQAKFHKPANKLIDNG | – | – | 9.02 |

Reference: PMC10161063 (Proceedings of the National Academy of Sciences of the …, 2023)
